Experimental data as given in patent publication US20180118799A1 (NATIONAL INSTITUTE OF ADVANCED INDUSTRIAL SCIENCE AND …, published 2018).

T1: Fc-fusion G-CSF receptor
T1 construct: also called granulocyte colony-stimulating factor receptor
T1 sequence (Q99062 whole entry, species assumed, looked up): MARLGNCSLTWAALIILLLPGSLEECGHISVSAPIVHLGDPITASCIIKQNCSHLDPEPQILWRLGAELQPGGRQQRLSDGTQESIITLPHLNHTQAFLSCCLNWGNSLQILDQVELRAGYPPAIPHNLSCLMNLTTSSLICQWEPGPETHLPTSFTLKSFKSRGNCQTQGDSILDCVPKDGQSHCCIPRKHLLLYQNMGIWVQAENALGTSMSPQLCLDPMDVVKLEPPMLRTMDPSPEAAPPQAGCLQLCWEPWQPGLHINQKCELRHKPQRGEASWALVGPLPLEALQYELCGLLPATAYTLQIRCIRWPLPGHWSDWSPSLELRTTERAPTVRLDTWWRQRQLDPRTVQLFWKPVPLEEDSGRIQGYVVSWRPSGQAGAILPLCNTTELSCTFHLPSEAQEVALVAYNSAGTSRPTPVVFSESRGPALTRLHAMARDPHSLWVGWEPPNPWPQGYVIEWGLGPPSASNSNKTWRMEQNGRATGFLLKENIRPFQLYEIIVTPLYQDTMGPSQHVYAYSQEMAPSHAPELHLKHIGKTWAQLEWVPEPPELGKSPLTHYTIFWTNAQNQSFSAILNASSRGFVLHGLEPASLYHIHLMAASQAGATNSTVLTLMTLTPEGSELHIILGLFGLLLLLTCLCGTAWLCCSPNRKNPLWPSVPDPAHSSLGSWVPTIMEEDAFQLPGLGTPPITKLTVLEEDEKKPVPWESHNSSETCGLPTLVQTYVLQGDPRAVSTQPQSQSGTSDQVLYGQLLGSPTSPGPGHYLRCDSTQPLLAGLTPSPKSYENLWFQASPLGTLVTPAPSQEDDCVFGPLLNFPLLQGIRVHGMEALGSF


How the values were obtained:
[1] = target: T1, Fc-fusion G-CSF receptor; experiment: SPR, Biacore T200, Fc-fusion G-CSF receptor captured on immobilized Protein A, single kinetic mode, 25 C (Example 19)
Method: (§1) First, commercially available Protein A (Nacalai Tesque, Inc.) was immobilized on a flow cell of a sensor chip CM5 (GE Health care) by using an amine coupling reaction. Next, a running buffer HBS-P (10 mM HEPES pH 7.4, 150 mM NaCl, and 0.05% v/v Surfactant P20) in which an Fc-fusion G-CSF receptor had been dissolved was added to immobilize the receptor on the chip. The SPR measurement was carried out using Biacore T200 (Biacore) and the reaction temperature was 25° C. A 2-fold dilution series from 1.25 nM to 20 nM of the sample solution was prepared, and a single kinetic mode was used for measurement and analysis. When compared with Example 8, this Example had improvements such as use of Biacore T200, which has higher sensitivity than Biacore T100, and use of commercially available Protein A. The improvements helped increase the sensitivity and reproducibility of measurement. Then, the linear G-CSF, G-CSF(C177), and G-CSF(C163) as measured in Example 8 were remeasured and the resulting analysis values were used for comparison.
(§2) The observation results were analyzed using BIAevaluation version 4.1 to calculate a dissociation constant.

[2] = target: T1, Fc-fusion G-CSF receptor; experiment: SPR, Biacore T200, Fc-fusion G-CSF receptor captured on immobilized Protein A, single kinetic mode, 25 C (Example 19, remeasured)
Method: as §1

[3] = target: T1, Fc-fusion G-CSF receptor; experiment: SPR, Biacore T100, Fc-fusion G-CSF receptor captured on immobilized Protein G, single kinetic mode, 25 C (Example 8)
Method: First, Protein G was immobilized on a flow cell of a sensor chip CMS (GE Health care) by using a maleimide coupling reaction. Next, a running buffer HBS-P (10 mM HEPES pH 7.4, 150 mM NaCl, and 0.05% v/v Surfactant P20) in which an Fc-fusion G-CSF receptor had been dissolved was added to immobilize the receptor on the chip. The SPR measurement was carried out using Biacore T100 (Biacore) and the reaction temperature was 25° C. A 2-fold dilution series from 1.25 nM to 20 nM of the sample solution was prepared, and a single kinetic mode was used for measurement and analysis.
as §2

Kd [1] | Kd [2] | Kd [3] | Binder
0.05 nM | – | – | G-CSF(C170) (ligand, backbone cyclized: amino group of serine at the N-terminus and carbonyl group of glycine at the C-terminus linked by a peptide bond, 170 amino acids; also called cyclized G-CSF(C170)) SGPASSLPQSFLLKSLEQVRKIQGDGAALQEKLCATYKLCHPEELVLLGHSLGIPWAPLSSCPSQALQLAGCLSQLHSGLFLYQGLLQALEGISPELGPTLDTLQLDVADFATTIWQQMEELGMAPALQPTQGAMPAFASAFQRRAGGVLVASHLQSFLEVSYRVLRHLG
– | 0.06 nM | 0.57 nM | G-CSF(C177) (ligand, backbone cyclized: amino group of serine at the N-terminus and carbonyl group of glycine at the C-terminus linked by a peptide bond, Cyclized with split inteins; also called cyclized G-CSF(C177)) SMAPLGPASSLPQSFLLKSLEQVRKIQGDGAALQEKLCATYKLCHPEELVLLGHSLGIPWAPLSSCPSQALQLAGCLSQLHSGLFLYQGLLQALEGISPELGPTLDTLQLDVADFATTIWQQMEELGMAPALQPTQGAMPAFASAFQRRAGGVLVASHLQSFLEVSYRVLRHLAQPG
– | 0.08 nM | 0.43 nM | linear control G-CSF (ligand, Linear polypeptide of 175 amino acids; also called linear G-CSF) MAPLGPASSLPQSFLLKSLEQVRKIQGDGAALQEKLCATYKLCHPEELVLLGHSLGIPWAPLSSCPSQALQLAGCLSQLHSGLFLYQGLLQALEGISPELGPTLDTLQLDVADFATTIWQQMEELGMAPALQPTQGAMPAFASAFQRRAGGVLVASHLQSFLEVSYRVLRHLAQP
0.27 nM | – | – | filgrastim (ligand, Its source in the assay is not described) MTPLGPASSLPQSFLLKCLEQVRKIQGDGAALQEKLCATYKLCHPEELVLLGHSLGIPWAPLSSCPSQALQLAGCLSQLHSGLFLYQGLLQALEGISPELGPTLDTLQLDVADFATTIWQQMEELGMAPALQPTQGAMPAFASAFQRRAGGVLVASHLQSFLEVSYRVLRHLAQP
0.06 nM | – | – | G-CSF(C166) (ligand, backbone cyclized: amino group of serine at the N-terminus and carbonyl group of glycine at the C-terminus linked by a peptide bond, also called cyclized G-CSF(C166)) SSLPQSFLLKSLEQVRKIQGDGAALQEKLCATYKLCHPEELVLLGHSLGIPWAPLSSCPSQALQLAGCLSQLHSGLFLYQGLLQALEGISPELGPTLDTLQLDVADFATTIWQQMEELGMAPALQPTQGAMPAFASAFQRRAGGVLVASHLQSFLEVSYRVLRHLG
– | 0.1 nM | 0.57 nM | G-CSF(C163) (ligand, backbone cyclized: amino group of serine at the N-terminus and carbonyl group of glycine at the C-terminus linked by a peptide bond, also called cyclized G-CSF(C163)) SQSFLLKSLEQVRKIQGDGAALQEKLCATYKLCHPEELVLLGHSLGIPWAPLSSCPSQALQLAGCLSQLHSGLFLYQGLLQALEGISPELGPTLDTLQLDVADFATTIWQQMEELGMAPALQPTQGAMPAFASAFQRRAGGVLVASHLQSFLEVSYRVLRHLG
